# B1: Hairpin Ribozyme (parent)
# chain: GUCCUCUUUCACGUGCGCGUGAAAGAGAGAAGUGAACCAGAGAAACACACGUUGUGGUAUAUUACCUGGUA
# Variants of: B1
# Experiment: self-cleavage, relative activity (ratio to wild type); higher = more cleavage; co-transcriptional
row,Variant,self-cleavage
1,GUCGUCUUUCACGUGCGCGUGAAAGAUAGAAGUGAACCAGAGAAACACACGUUGUGGUAUAUUACCUGGUA [C4G G27U],0.31
2,GUCUUCUUUCACGUGCGCGUGAAAGAGAGAAGUGAACCAGAGAAACACACGUUGCGGUAUAUUACCUGGUA [C4U U55C],0.093
3,GUCCUCUUUCACGUGUGCGUGAAAGAGAGAAGUGAGCCAGAGAAACACACGUUGUGGUAUAUUACCUGGUA [C16U A36G],1.34
4,GUCCUCUUUCACGUGCGCGAGAAAGAGAGAAGUGAACCAGAGAAACACACGUUGUCGUAUAUUACCUGGUA [U20A G56C],0.145
5,GUCCUCCUUCACGUGCGCGUGAAAGAGAGAAGUGAACCAGAGAAACACACGUUGUGGUGUAUUACCUGGUA [U7C A59G],0.088
6,GUCCACUUUCACGUGCGCGUGAAAGAGAGAAGUGAACCAGAGAAACACACGUUGUGGUAUAAUACCUGGUA [U5A U62A],0.139
7,GUCCUCUUUCACGUGCGCGUGAAAGAGAGAAGUAAACCAGAGAAACACACGUUGUCGUAUAUUACCUGGUA [G34A G56C],0.13
8,GUCCUCUUUCACGUGCGCGUGAAAGAGAGAAGUGAACCAGAGAAACCCACGUUUUGGUAUAUUACCUGGUA [A47C G54U],0.241
9,GUCCUCUUUCACGUACGCGUGAAAGAGAGAAGUGAACCAGAGAAAGACACGUUGUGGUAUAUUACCUGGUA [G15A C46G],0.0897
10,GUCCUCUUUCACGUGCGCGUGAAAGAGAGAAGUGAACCAGAGAAACACACGUUGCGGUUUAUUACCUGGUA [U55C A59U],0.239
11,GUCCUCUUUCACGUGCGCGUGCAAGAGAGAAGUGAACCAGAGAAACACACGUUGUGGUAUAUUACCUGGUU [A22C A71U],0.685
12,GUCCACUUUCACGUGCGCGUGAAAGAGAGAAGUGAUCCAGAGAAACACACGUUGUGGUAUAUUACCUGGUA [U5A A36U],0.255
13,CUCCUCUCUCACGUGCGCGUGAAAGAGAGAAGUGAACCAGAGAAACACACGUUGUGGUAUAUUACCUGGUA [G1C U8C],0.172
14,GUCCUCUUUCACGUGCGCGUGAAAAUGAGAAGUGAACCAGAGAAACACACGUUGUGGUAUAUUACCUGGUA [G25A A26U],0.175
15,GCCCUCUUUCACGUGCGCGUGAAAGAGAGAAGUGAACCAGAGAAACACACGUUGUGGUAUAUUACCUGUUA [U2C G69U],0.114
16,GUCCUCUUUCACGUGCGCGUGAAAGAGAGAAGUGAACCAGAGAAAUACCCGUUGUGGUAUAUUACCUGGUA [C46U A49C],0.201
17,GUCCUCUUUCACGUACGCGUGAAAGAGAGAAGUUAACCAGAGAAACACACGUUGUGGUAUAUUACCUGGUA [G15A G34U],1.26
18,GUCCUCUUUCACGUGCGCGUGAAAGAGAGAAGUGAACCAGAGAAACACUCGUUGUCGUAUAUUACCUGGUA [A49U G56C],0.102
19,GUCCGCUUUCACGUGCGCGUGAAAGAGAGAAGUGAACCAGAGAAACACACGUUGUGGUAUAUUACCUUGUA [U5G G68U],0.156
20,GUCCUCUUUCACGUGCGCGUGCAAGAGCGAAGUGAACCAGAGAAACACACGUUGUGGUAUAUUACCUGGUA [A22C A28C],0.386
21,GUCCUCUUUCACGUGCGCGUGACAGAGAGAAGUGAACCAGAGAAACACACGUUGUGGUAUAUUAACUGGUA [A23C C65A],0.818
22,GUCCUCUUUCACGUGCGCGUGAAAGAGAGAAGUGAAGCAGAGAAACACACGUUGUGGUAUAUUACCUCGUA [C37G G68C],0.131
23,GUCCUCUUUCACGUGCGCGUGAAAGAGAGAAGUGAACCAGAGAGACACACGUUAUGGUAUAUUACCUGGUA [A44G G54A],0.151

row,Variant,self-cleavage
1,GUCCUCUUUCACGUGCGCGUGAAAGAGAGAAGUGAACCAGAGAAAUACACGUUGUGGUAUAUUAUCUGGUA [C46U C65U],0.216
2,GUCCUCUUUCACGUGCGCGUGAAAGAGAGGAGUGAACCAGAGAAACACACGUUGUGCUAUAUUACCUGGUA [A30G G57C],0.0397
3,GUCGUCUUUCACGUGCGCGUGAAAGAGAGAAGUGAACCAGAGAAACAGACGUUGUGGUAUAUUACCUGGUA [C4G C48G],0.0514
4,GUCCUCUUUCACGUGUGCGUGAAAGAGAGAAGUGAACCAGAGAAACACACGUUGUGGUAUAUUACCUGGUG [C16U A71G],1.08
5,GUCCUCUUUCACGUGCGCGUGAAAGAGAGAAGCGAACCAGAGAAACACCCGUUGUGGUAUAUUACCUGGUA [U33C A49C],0.148
6,GUCCUCUCUCACGUGCGCGUGACAGAGAGAAGUGAACCAGAGAAACACACGUUGUGGUAUAUUACCUGGUA [U8C A23C],0.68
7,GUCCUCUUUCCCGUGCGCGUGAAAGAGAGAAGUGAACCAGAGAAACACACGUUCUGGUAUAUUACCUGGUA [A11C G54C],0.378
8,GUCCUGUUUCACGUGCGCGUGGAAGAGAGAAGUGAACCAGAGAAACACACGUUGUGGUAUAUUACCUGGUA [C6G A22G],0.52
9,GUCCUCUUUCACGGACGCGUGAAAGAGAGAAGUGAACCAGAGAAACACACGUUGUGGUAUAUUACCUGGUA [U14G G15A],0.932
10,GUCCUCUUUCACGUCCGCUUGAAAGAGAGAAGUGAACCAGAGAAACACACGUUGUGGUAUAUUACCUGGUA [G15C G19U],0.953
11,GUCCUCUUUCACGUGCGCGUGAAAGAGAGAAGUGAACCACAGAAACACACUUUGUGGUAUAUUACCUGGUA [G40C G51U],0.131
12,GUCCUCUUUCACGUACGCGUGAAAAAGAGAAGUGAACCAGAGAAACACACGUUGUGGUAUAUUACCUGGUA [G15A G25A],0.576
13,GUCCUCUUUCACGUGCGCGUGAAAGAGAGAAGUGAACCAGACAAACACACGUUGUGGUAUAUUACCUAGUA [G42C G68A],0.119
14,GUCCUCUUUCACGUGCGCGUGAAAGAGAGAAGUGAACCAGAGAAACACACGUUGUGGUAUAUCAUCUGGUA [U63C C65U],0.131
15,GUCCUCUUUCACGUGCGCAUGAAAGAGAUAAGUGAACCAGAGAAACACACGUUGUGGUAUAUUACCUGGUA [G19A G29U],0.21
16,GUCCUCUUUCACGUGCGCGUGAAAGAGAGAAGUGAACCAAAAAAACACACGUUGUGGUAUAUUACCUGGUA [G40A G42A],0.0412
17,GUCCUCUUUCGCGUGCGCGUGAAAGAGAGAAGUGAACCAGAGAAACACACGUUGUGGUAUAUUACCUGCUA [A11G G69C],0.267
18,GUCCUCUUUCACGUGCGCGUGAAAGAGAGAUGUGAAACAGAGAAACACACGUUGUGGUAUAUUACCUGGUA [A31U C37A],0.0463
19,GUCCUCUUACACGUGCGCGUGAAAGAGAGAAGUGAACCAGAGAAACACACGUUGUGGUAUGUUACCUGGUA [U9A A61G],0.148
20,GUCCUCUUUCACGUGCGCGUGAAAGAGAGAAGUUAACCAGAGAAACACACAUUGUGGUAUAUUACCUGGUA [G34U G51A],1.57
21,GUCCUCUUUCACGUGCCCGUGAAAGAGAGAAGUGAACCAGAGAAACACACGUUGUGAUAUAUUACCUGGUA [G17C G57A],0.148
22,AUCCUCUUUCACGUGCGCGUGAAAGAGAGAAGUGAACCAGAGAACCACACGUUGUGGUAUAUUACCUGGUA [G1A A45C],0.0307
23,GUCCUCUUUCACGUGCGCGUGAAAGAGAGAAGUGAACCAGAGAAACACACGUUGUGGUAUAUAUCCUGGUA [U63A A64U],0.198

row,Variant,self-cleavage
1,GUCCUCUUUCACGUGCGCGUGAAAGAGAUAAGUGAACCAGAGAAACACACGUUGUGGUAUAUUACCUGGUC [G29U A71C],0.152
2,GUCCUCUUUCACGUGCGCGUGAAAUAGAGAAGUGAACCAGAGAAACACACGUUGUGGUAUAUUACCCGGUA [G25U U67C],0.178
3,GUCCUCAUUCACGUGCGCGUGAAAGAGAGAAGUGAACCAGAGAGACACACGUUGUGGUAUAUUACCUGGUA [U7A A44G],0.201
4,CUCCUAUUUCACGUGCGCGUGAAAGAGAGAAGUGAACCAGAGAAACACACGUUGUGGUAUAUUACCUGGUA [G1C C6A],0.245
5,GUCCUCUUUCACGUGCGCGUGAAAGAGAGAAGUGAACCAGAGAAACACAUAUUGUGGUAUAUUACCUGGUA [C50U G51A],0.322
6,GUCCUCUUUCACGUGCGCGUGAAAGAGAGAAGUGAACCAGAGAAACACCCGUUGUGGUAUAUUACCAGGUA [A49C U67A],0.13
7,GACCUCUUUCACGUGCGCGUGAAAGAGAGAAGUGAACCAGAGAAACACACGUUGUGGUAUAUUACCUGGAA [U2A U70A],0.331
8,GUCCUCUUUCAAGUGCGCGUGAAAGAGAGAAGUGAACCAGAGAAACACACGUUGUGGUAUAUUACCUGGAA [C12A U70A],0.673
9,CUCCUCUUUCACGUGCGCGUGAAAGAGAGAAGUGAACCAGAGAAACACACGUUGUGGUAUAUUACCUGGCA [G1C U70C],0.155
10,GUCCUCUUUCACGUGCGCGUGAAAGAGGGAAGUGAACCAGAGAAACACACGUUGUGGUAUAUUACCUGGGA [A28G U70G],0.978
11,GUCAUCUUUCACGUGCGCGUGAAAGAUAGAAGUGAACCAGAGAAACACACGUUGUGGUAUAUUACCUGGUA [C4A G27U],0.557
12,GACCUCUUUCACGUGCGGGUGAAAGAGAGAAGUGAACCAGAGAAACACACGUUGUGGUAUAUUACCUGGUA [U2A C18G],0.212
13,GUCCUCUCUCACGUGCGCAUGAAAGAGAGAAGUGAACCAGAGAAACACACGUUGUGGUAUAUUACCUGGUA [U8C G19A],0.302
14,GUCCUCUUUCACGUGCGCGUGAAAGAGAGAAGUGAACCAGAGAAAUACACGUUAUGGUAUAUUACCUGGUA [C46U G54A],0.237
15,GUCCUCUUUCACGUGCGCGUGAAAGAGAGAAGUGAACGAGAGAAACACACGUUGUGGUAUAUUACCUUGUA [C38G G68U],0.514
16,GUCCUCUUUCAAGUGCGCGUGAAAGAGAGAAGUGAACCAGAGAAACACACGUUGUGCUAUAUUACCUGGUA [C12A G57C],0.17
17,GUCCUCUUUCACGUGCGCGUGAAAGUGAGAAGUAAACCAGAGAAACACACGUUGUGGUAUAUUACCUGGUA [A26U G34A],0.954
18,GUCCUCUUUCACGUGCGCGUGAACGAGCGAAGUGAACCAGAGAAACACACGUUGUGGUAUAUUACCUGGUA [A24C A28C],0.349
19,GUCUUCUUUCACGUGGGCGUGAAAGAGAGAAGUGAACCAGAGAAACACACGUUGUGGUAUAUUACCUGGUA [C4U C16G],0.243
20,GUUCUCUUUCACGUGCGCGUGAAAGAGAGAAGUGAACCCGAGAAACACACGUUGUGGUAUAUUACCUGGUA [C3U A39C],0.199
21,GUCCUCUUUCACGUGCGUGUGAAAGAGAGAAGUGAACCAGAGAAACACAAGUUGUGGUAUAUUACCUGGUA [C18U C50A],0.314
22,GUCCUCUUUCACGUGCGCGUGAAAGAGAGAAGUGAACCAGAGAUACACACGUUGUGGGAUAUUACCUGGUA [A44U U58G],0.136

# Source: the RNAGym collection of RNA variant scans (doi:10.7554/elife.80360)
